Reference: the supplement of paper PMC5998384

Assays:
HeLa Kyoto [1] = assay: solubility in G1/S (NP-40 vs SDS abundance) (log2 ratio); higher = more soluble; conditions: cell cycle stage: G1/S
HeLa Kyoto [2] = assay: solubility change mitosis vs G1/S (difference of NP-40 vs SDS log2 ratios) (log2 ratio difference); higher = more soluble in mitosis
HeLa Kyoto [3] = assay: thermal stability score vs G1/S (z-score of summed log2 fold changes over temperatures); higher = more thermally stable than in G1/S
[4] = cell cycle stage: early G1 (4.5 h after nocodazole release)
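Wherever solubility change mitosis vs G1/S (difference of NP-40 vs SDS log2 ratios) is given: synchronized HeLa Kyoto cells (double thymidine block for G1/S, nocodazole release for mitosis), protein amounts in NP-40 versus SDS lysates quantified by mass spectrometry, three biological replicates.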
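Wherever solubility in G1/S (NP-40 vs SDS abundance) is given: HeLa Kyoto cells arrested at G1/S by double thymidine block, proteins quantified by TMT10plex mass spectrometry in mild NP-40 versus SDS extracts, three biological replicates.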
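Wherever thermal stability score vs G1/S (z-score of summed log2 fold changes over temperatures) is given: synchronized HeLa Kyoto cells, proteins quantified by TMT10plex mass spectrometry, three biological replicates, mitosis taken 0.5 h after nocodazole release, G1/S directly after double thymidine block.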

BMS1, sequence (chain, as listed by the source): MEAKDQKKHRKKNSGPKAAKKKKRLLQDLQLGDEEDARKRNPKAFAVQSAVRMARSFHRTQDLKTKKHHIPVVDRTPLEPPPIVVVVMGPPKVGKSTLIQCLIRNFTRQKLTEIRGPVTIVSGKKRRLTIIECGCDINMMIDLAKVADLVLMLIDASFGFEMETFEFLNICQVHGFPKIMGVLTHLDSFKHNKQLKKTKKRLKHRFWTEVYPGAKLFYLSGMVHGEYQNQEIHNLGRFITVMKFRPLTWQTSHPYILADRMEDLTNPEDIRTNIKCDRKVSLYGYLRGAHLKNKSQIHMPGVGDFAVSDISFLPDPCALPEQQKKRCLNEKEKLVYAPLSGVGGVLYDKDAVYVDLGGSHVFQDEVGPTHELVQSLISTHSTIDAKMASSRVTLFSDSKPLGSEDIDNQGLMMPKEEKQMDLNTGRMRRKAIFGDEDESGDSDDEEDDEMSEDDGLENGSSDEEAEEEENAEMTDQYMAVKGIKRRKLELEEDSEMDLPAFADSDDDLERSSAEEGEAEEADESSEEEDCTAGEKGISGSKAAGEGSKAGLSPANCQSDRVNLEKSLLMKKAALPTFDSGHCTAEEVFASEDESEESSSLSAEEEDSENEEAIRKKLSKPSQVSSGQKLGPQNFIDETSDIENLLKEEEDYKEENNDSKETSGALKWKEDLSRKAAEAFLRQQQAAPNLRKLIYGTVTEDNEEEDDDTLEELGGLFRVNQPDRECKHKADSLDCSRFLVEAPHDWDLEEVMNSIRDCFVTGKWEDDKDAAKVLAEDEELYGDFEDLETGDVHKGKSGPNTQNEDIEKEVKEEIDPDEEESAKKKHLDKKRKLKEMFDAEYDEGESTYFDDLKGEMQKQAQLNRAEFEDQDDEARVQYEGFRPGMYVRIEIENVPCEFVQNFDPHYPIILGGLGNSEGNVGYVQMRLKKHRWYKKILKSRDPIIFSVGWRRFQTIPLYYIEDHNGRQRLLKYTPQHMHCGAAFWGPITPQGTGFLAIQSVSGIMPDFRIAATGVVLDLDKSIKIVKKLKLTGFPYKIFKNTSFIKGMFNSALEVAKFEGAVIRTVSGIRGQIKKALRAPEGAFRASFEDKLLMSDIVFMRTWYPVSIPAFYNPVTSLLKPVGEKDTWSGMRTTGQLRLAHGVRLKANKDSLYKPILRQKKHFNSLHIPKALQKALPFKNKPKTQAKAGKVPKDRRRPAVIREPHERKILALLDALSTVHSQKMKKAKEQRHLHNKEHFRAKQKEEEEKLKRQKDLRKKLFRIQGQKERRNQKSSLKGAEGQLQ

Substance | solubility in G1/S (log2) (HeLa Kyoto [1]) | solubility change mitosis (log2) (HeLa Kyoto [2]) | thermal stability score (HeLa Kyoto [3]; [4]) | thermal stability score (HeLa Kyoto [3]; cell cycle stage: mitosis)
MECPVMETGSLFTSGIKRHLKDKRISKTTKLNVSLASKIKTKILNNSSIFKISLKHNNRALAQALSREKENSRRITTEKMLLQKEVEKLNFENTFLRLKLNNLNKKLIDIEALMNNNLITAIEMSSLSEFHQSSFLLSASKKKRISKQCKLMRLPFARVPLTSNDDEDEDKEKMQCDNNIKSKTLPDIPSSGSTTQPLSTQDNSEVLFLKENNQNVYGLDDSEHISSIVDVPPRESHSHSDQSSKTSLMSEMRNAQSIGRRWEKPSPSNVTERKKRGSSWESNNLSADTPCATVLDKQHISSPELNCNNEINGHTNETNTEMQRNKQDLPGLSSESAREPNAECMNQIEDNDDFQLQKTVYDADMDLTASEVSKIVTVSTGIKKKSNKKTNEHGMKTFRKVKDSSSEKKRERSKRQFKNSSDVDIGEKIENRTERSDVLDGKRGAEDPGFIFNNEQLAQMNEQLAQVNELKKMTLQTGFEQGDRENVLCNKKEKRITNEQEETYSLSQSSGKFHQESKFDKGQNSLTCNKSKASRQTFVIHKLEKDNLLPNQKDKVTIYENLDVTNEFHTANLSTKDNGNLCDYGTHNILDLKKYVTDIQPSEQNESNINKLRKKVNRKTEIISGMNHMYEDNDKDVVHGLKKGNFFFKTQEDKEPISENIEVSKELQIPALSTRDNENQCDYRTQNVLGLQKQITNMYPVQQNESKVNKKLRQKVNRKTEIISEVNHLDNDKSIEYTVKSHSLFLTQKDKEIIPGNLEDPSEFETPALSTKDSGNLYDSEIQNVLGVKHGHDMQPACQNDSKIGKKPRLNVCQKSEIIPETNQIYENDNKGVHDLEKDNFFSLTPKDKETISENLQVTNEFQTVDLLIKDNGNLCDYDTQNILELKKYVTDRKSAEQNESKINKLRNKVNWKTEIISEMNQIYEDNDKDAHVQESYTKDLDFKVNKSKQKLECQDIINKHYMEVNSNEKESCDQILDSYKVVKKRKKESSCKAKNILTKAKNKLASQLTESSQTSISLESDLKHITSEADSDPGNPVELCKTQKQSTTTLNKKDLPFVEEIKEGECQVKKVNKMTSKSKKRKTSIDPSPESHEVMERILDSVQGKSTVSEQADKENNLENEKMVKNKPDFYTKAFRSLSEIHSPNIQDSSFDSVREGLVPLSVSSGKNVIIKENFALECSPAFQVSDDEHEKMNKMKFKVNRRTQKSGIGDRPLQDLSNTSFVSNNTAESENKSEDLSSERTSRRRRCTPFYFKEPSLRDKMRR [SGOL2] | -0.383 | 0.191 | 0.746 | 2.18
BMS1 | -2.43 | 0.919 | -1.95 | -3.51
MTTLDHVIATHQSEWVSFNEEPPFPAHSQGGTEEHLPGLSSSPDQSESSSGENHVVDGGSQDHSHSEQDDSSEKMGLISEAASPPGSPEQPPPDLASAISNWVQFEDDTPWASTSPPHQETAETALPLTMPCWTCPSFDSLGRCPLTSESSWTTHSEDTSSPSFGCSYTDLQLINAEEQTSGQASGADSTDNSSSLQEDEEVEMEAISWQASSPAMNGHPAPPVTSARFPSWVTFDDNEVSCPLPPVTSPLKPNTPPSASVIPDVPYNSMGSFKKRDRPKSTLMNFSKVQKLDISSLNRTPSVTEASPWRATNPFLNETLQDVQPSPINPFSAFFEEQERRSQNSSISSTTGKSQRDSLIVIYQDAISFDDSSKTQSHSDAVEKLKQLQIDDPDHFGSATLPDDDPVAWIELDAHPPGSARSQPRDGWPMMLRIPEKKNIMSSRHWGPIFVKLTDTGYLQLYYEQGLEKPFREFKLEICHEISEPRLQNYDENGRIHSLRIDRVTYKEKKKYQPKPAVAHTAEREQVIKLGTTNYDDFLSFIHAVQDRLMDLPVLSMDLSTVGLNYLEEEITVDVRDEFSGIVSKGDNQILQHHVLTRIHILSFLSGLAECRLGLNDILVKGNEIVLRQDIMPTTTTKWIKLHECRFHGCVDEDVFHNSRVILFNPLDACRFELMRFRTVFAEKTLPFTLRTATSVNGAEVEVQSWLRMSTGFSANRDPLTQVPCENVMIRYPVPSEWVKNFRRESVLGEKSLKAKVNRGASFGSTSVSGSEPVMRVTLGTAKYEHAFNSIVWRINRLPDKNSASGHPHCFFCHLELGSDREVPSRFANHVNVEFSMPTTSASKASVRSISVEDKTDVRKWVNYSAHYSYQVALGSIWLMLPTPFVHPTTLPLLFLLAMLTMFAW [STON2] | -0.622 | 0.444 | 0.129 | -0.103
MVQKYQSPVRVYKYPFELIMAAYERRFPTCPLIPMFVGSDTVNEFKSEDGAIHVIERRCKLDVDAPRLLKKIAGVDYVYFVQKNSLNSRERTLHIEAYNETFSNRVIINEHCCYTVHPENEDWTCFEQSASLDIKSFFGFESTVEKIAMKQYTSNIKKGKEIIEYYLRQLEEEGITFVPRWSPPSITTSSETSSSSSKKQAASMAVVIPEAALKEGLSGDALSSPSAPEPVVGTPDDKLDADYIKRYLGDLTPLQESCLIRLRQWLQETHKGKIPKDEHILRFLRARDFNIDKAREIMCQSLTWRKQHQVDYILETWTPPQVLQDYYAGGWHHHDKDGRPLYVLRLGQMDTKGLVRALGEEALLRYVLSINEEGLRRCEENTKVFGRPISSWTCLVDLEGLNMRHLWRPGVKALLRIIEVVEANYPETLGRLLILRAPRVFPVLWTLVSPFIDDNTRRKFLIYAGNDYQGPGGLLDYIDKEIIPDFLSGECMCEVPEGGLVPKSLYRTAEELENEDLKLWTETIYQSASVFKGAPHEILIQIVDASSVITWDFDVCKGDIVFNIYHSKRSPQPPKKDSLGAHSITSPGGNNVQLIDKVWQLGRDYSMVESPLICKEGESVQGSHVTRWPGFYILQWKFHSMPACAASSLPRVDDVLASLQVSSHKCKVMYYTEVIGSEDFRGSMTSLESSHSGFSQLSAATTSSSQSHSSSMISR [SEC14L1] | -0.0916 | -0.126 | -0.528 | 0.106
MAGENFATPFHGHVGRGAFSDVYEPAEDTFLLLDALEAAAAELAGVEICLEVGSGSGVVSAFLASMIGPQALYMCTDINPEAAACTLETARCNKVHIQPVITDLVKGLLPRLTEKVDLLVFNPPYVVTPPQEVGSHGIEAAWAGGRNGREVMDRFFPLVPDLLSPRGLFYLVTIKENNPEEILKIMKTKGLQGTTALSRQAGQETLSVLKFTKS [N6AMT1] | 0.483 | 0.0523 | 0.341 | 0.273
MAKREDSPGPEVQPMDKQFLVCSICLDRYQCPKVLPCLHTFCERCLQNYIPAQSLTLSCPVCRQTSILPEQGVSALQNNFFISSLMEAMQQAPDGAHDPEDPHPLSVVAGRPLSCPNHEGKTMEFYCEACETAMCGECRAGEHREHGTVLLRDVVEQHKAALQRQLEAVRGRLPQLSAAIALVGGISQQLQERKAEALAQISAAFEDLEQALQQRKQALVSDLETICGAKQKVLQSQLDTLRQGQEHIGSSCSFAEQALRLGSAPEVLLVRKHMRERLAALAAQAFPERPHENAQLELVLEVDGLRRSVLNLGALLTTSATAHETVATGEGLRQALVGQPASLTVTTKDKDGRLVRTGSAELRAEITGPDGTRLPVPVVDHKNGTYELVYTARTEGELLLSVLLYGQPVRGSPFRVRALRPGDLPPSPDDVKRRVKSPGGPGSHVRQKAVRRPSSMYSTGGKRKDNPIEDELVFRVGSRGREKGEFTNLQGVSAASSGRIVVADSNNQCIQVFSNEGQFKFRFGVRGRSPGQLQRPTGVAVDTNGDIIVADYDNRWVSIFSPEGKFKTKIGAGRLMGPKGVAVDRNGHIIVVDNKSCCVFTFQPNGKLVGRFGGRGATDRHFAGPHFVAVNNKNEIVVTDFHNHSVKVYSADGEFLFKFGSHGEGNGQFNAPTGVAVDSNGNIIVADWGNSRIQVFDSSGSFLSYINTSAEPLYGPQGLALTSDGHVVVADAGNHCFKAYRYLQ [TRIM3] | -0.0387 | -0.138 | 0.13 | 0.0555
MSSKQEIMSDQRFRRVAKDPRFWEMPEKDRKVKIDKRFRAMFHDKKFKLNYAVDKRGRPISHSTTEDLKRFYDLSDSDSNLSGEDSKALSQKKIKKKKTQTKKEIDSKNLVEKKKETKKANHKGSENKTDLDNSIGIKKMKTSCKFKIDSNISPKKDSKEFTQKNKKEKKNIVQHTTDSSLEEKQRTLDSGTSEIVKSPRIECSKTRREMQSVVQLIMTRDSDGYENSTDGEMCDKDALEEDSESVSEIGSDEESENEITSVGRASGDDDGSEDDEEEDEDEEEDEDEDSEDDDKSDSGPDLARGKGNIETSSEDEDDTADLFPEESGFEHAWRELDKDAPRADEITRRLAVCNMDWDRLKAKDLLALFNSFKPKGGVIFSVKIYPSEFGKERMKEEQVQGPVELLSIPEDAPEKDWTSREKLRDYQFKRLKYYYAVVDCDSPETASKIYEDCDGLEFESSCSFIDLRFIPDDITFDDEPKDVASEVNLTAYKPKYFTSAAMGTSTVEITWDETDHERITMLNRKFKKEELLDMDFQAYLASSSEDEEEIEEELQGDDGVNVEEDGKTKKSQKDDEEQIAKYRQLLQVIQEKEKKGKENDMEMEIKWVPGLKESAEEMVKNKLEGKDKLTPWEQFLEKKKEKKRLKRKQKALAEEASEEELPSDVDLNDPYFAEEVKQIGINKKSVKSAKDGTSPEEEIEIERQKAEMALLMMDEDEDSKKHFNYNKIVEHQNLSKKKKKQLMKKKELIEDDFEVNVNDARFQAMYTSHLFNLDPSDPNFKKTKAMEKILEEKARQRERKEQELTQAIKKKESEIEKESQRKSIDPALSMLIKSIKTKTEQFQARKKQKVK [ESF1] | -1.21 | 0.656 | 2.5 | 5.59
MTKLAQWLWGLAILGSTWVALTTGALGLELPLSCQEVLWPLPAYLLVSAGCYALGTVGYRVATFHDCEDAARELQSQIQEARADLARRGLRF [DPM3] | -0.196 | -0.214 | -3.28 | -4.14
MGKRDNRVAYMNPIAMARSRGPIQSSGPTIQDYLNRPRPTWEEVKEQLEKKKKGSKALAEFEEKMNENWKKELEKHREKLLSGSESSSKKRQRKKKEKKKSGRYSSSSSSSSDSSSSSSDSEDEDKKQGKRRKKKKNRSHKSSESSMSETESDSKDSLKKKKKSKDGTEKEKDIKGLSKKRKMYSEDKPLSSESLSESEYIEEVRAKKKKSSEEREKATEKTKKKKKHKKHSKKKKKKAASSSPDSP [FAM133B] | -1.16 | 0.889 | -5.3 | -3.34
MWKRSEQMKIKSGKCNMAAAMETEQLGVEIFETADCEENIESQDRPKLEPFYVERYSWSQLKKLLADTRKYHGYMMAKAPHDFMFVKRNDPDGPHSDRIYYLAMSGENRENTLFYSEIPKTINRAAVLMLSWKPLLDLFQATLDYGMYSREEELLRERKRIGTVGIASYDYHQGSGTFLFQAGSGIYHVKDGGPQGFTQQPLRPNLVETSCPNIRMDPKLCPADPDWIAFIHSNDIWISNIVTREERRLTYVHNELANMEEDARSAGVATFVLQEEFDRYSGYWWCPKAETTPSGGKILRILYEENDESEVEIIHVTSPMLETRRADSFRYPKTGTANPKVTFKMSEIMIDAEGRIIDVIDKELIQPFEILFEGVEYIARAGWTPEGKYAWSILLDRSQTRLQIVLISPELFIPVEDDVMERQRLIESVPDSVTPLIIYEETTDIWINIHDIFHVFPQSHEEEIEFIFASECKTGFRHLYKITSILKESKYKRSSGGLPAPSDFKCPIKEEIAITSGEWEVLGRHGSNIQVDEVRRLVYFEGTKDSPLEHHLYVVSYVNPGEVTRLTDRGYSHSCCISQHCDFFISKYSNQKNPHCVSLYKLSSPEDDPTCKTKEFWATILDSAGPLPDYTPPEIFSFESTTGFTLYGMLYKPHDLQPGKKYPTVLFIYGGPQVQLVNNRFKGVKYFRLNTLASLGYVVVVIDNRGSCHRGLKFEGAFKYKMGQIEIDDQVEGLQYLASRYDFIDLDRVGIHGWSYGGYLSLMALMQRSDIFRVAIAGAPVTLWIFYDTGYTERYMGHPDQNEQGYYLGSVAMQAEKFPSEPNRLLLLHGFLDENVHFAHTSILLSFLVRAGKPYDLQIYPQERHSIRVPESGEHYELHLLHYLQENLGSRIAALKVI [DPP8] | -0.288 | -0.0129 | -0.204 | 0.0056
